# B1: Histidine kinase 1 (Arabidopsis thaliana (Mouse-ear cress)), Q9SXL4 (parent)
# chain: MRGDSFSMSIENLPDSPMGSRKKKMQIRKVFDKMTEWVTPWRSNLESPREMMILRGDVEQDEFQYASSHCLSSYYSVFVVRLAIMVMLAILIGLLTVLTWHFTRIYTKQSLQTLAYGLRYELLQRPVLRMWSVLNTTSELTTAQVKLSEYVIKKYDKPTTQEELVEMYQAMKDVTWALFASAKALNAITINYRNGFVQAFHRDPASSSTFYIFSDLKNYSISGTGPEDVSGWNNKSIHGNMSAIWYQQQLDPVTGENLGKPLKIPPDDLINIAGISQVPDGEASWHVTVSKYMDSPLLSAALPVFDASNKSIVAVVGVTTALYSVGQLMRDLVEVHGGHIYLTSQEGYLLATSTDGPLLKNTSNGPQLMKATDSEEWVIKSGAQWLEKTYGSKRPHVVHAENVKLGDQRYYIDSFYLNLKRLPIVGVVIIPRKFIMGKVDERAFKTLIILISASVCIFFIGCVCILILTNGVSKEMKLRAELIRQLDARRRAEASSNYKSQFLANMSHELRTPMAAVIGLLDILISDDCLSNEQYATVTQIRKCSTALLRLLNNILDLSKVESGKLVLEEAEFDLGRELEGLVDMFSVQCINHNVETVLDLSDDMPALVRGDSARLVQIFANLISNSIKFTTTGHIILRGWCENINSLHDEMSVSVDRRKPWAPMKTKQVQHRNHLQKSCKNANKMVLWFEVDDTGCGIDPSKWDSVFESFEQADPSTTRTHGGTGLGLCIVRNLVNKMGGEIKVVQKNGLGTLMRLYLILSTPDTVDQNIQPDFSKYGLVVMLSMYGSTARMITSKWLRKHGIATVEASDWNELTQIIRDLLETGSRDNSFDSQHNISDPLRAELSNIVEIKNPVFVIVVDIGVLDLTTNIWKEQLNYLDRFSNKAKFAWLLKHDTSNTVKTELRRKGHVMMVNKPLYKAKMIQILEAVIKNRKRGLCNDLRNRGNGSDESHDCLEIDPTQFDTCSSDDSSETSGEKQVDKSVKPSTLHSPVLKNYLIDATTSNDDSTSASMTQKNPEEEDWKDRLYSGIALDGKNQKSLEGIRILLAEDTPVLQRVATIMLEKMGATVTAVWDGQQAVDSLNYKSINAQAPTEEHKSFEEETANKVTTRETSLRNSSPYDLILMDCQMPKMDGYEATKAIRRAEIGTELHIPIVALTAHAMSSDEAKCLEVGMDAYLTKPIDRKLMVSTILSLTKPSAFQTSLSA
# partner: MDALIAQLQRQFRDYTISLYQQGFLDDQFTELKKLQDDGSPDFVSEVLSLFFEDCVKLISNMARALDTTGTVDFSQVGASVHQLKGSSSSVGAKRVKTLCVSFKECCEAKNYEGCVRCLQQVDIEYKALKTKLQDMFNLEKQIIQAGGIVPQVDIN
# Variants of: B1
# Settings: with ahp2_arath AHP2, Q9ZNV8
row,Variant,effect of a mutation on the interaction
1,D1075E,disrupting interaction
